According to patent US5948622:

Target: T1, Tn5 transposase EK54/MA56/LP372 (Escherichia coli transposon Tn5) (UniProt Q46731)
T1 sequence: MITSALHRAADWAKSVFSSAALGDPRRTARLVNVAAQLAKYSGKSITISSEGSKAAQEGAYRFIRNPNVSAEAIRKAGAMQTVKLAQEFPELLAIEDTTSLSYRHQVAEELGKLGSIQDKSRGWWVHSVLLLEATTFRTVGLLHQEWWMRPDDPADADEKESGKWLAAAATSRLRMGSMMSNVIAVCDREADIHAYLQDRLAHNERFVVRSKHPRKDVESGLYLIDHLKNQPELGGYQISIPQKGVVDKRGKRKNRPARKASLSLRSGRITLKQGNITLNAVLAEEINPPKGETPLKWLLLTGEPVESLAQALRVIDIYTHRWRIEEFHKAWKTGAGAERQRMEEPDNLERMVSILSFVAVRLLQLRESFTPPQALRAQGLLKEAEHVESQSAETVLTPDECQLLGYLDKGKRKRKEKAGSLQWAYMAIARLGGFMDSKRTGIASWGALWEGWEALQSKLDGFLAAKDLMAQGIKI
Settings: pRZTL1 in vitro transposition; Mg acetate 10 mM, K glutamate 0.1 M, 20 C then 37 C; tet-resistance frequency, gel confirmed

Sequence: AGT (double strand) [Tn5 outside end (OE) wild type]
- activity: 0.1 % of cells
